The results in this text go back to patent US20100173334A1.

Test [1] concerns the target haptoglobin β chain derived from cancer (serum or cells of cancer patients) (human) (UniProt P00738). The experiment in a line: serum Western blot; urothelial cancer, superficial (n=18).
Test [2] has the same target. The experiment in a line: serum Western blot; the same 15 patients after radical prostatectomy.
Test [3] has the same target. The experiment in a line: serum Western blot; urothelial cancer, muscle invasive or advanced (n=19).
Test [4] shares this target. As to the kind of experiment: serum Western blot; 15 prostate cancer patients before radical prostatectomy.
Test [5] has the same target. The experiment in a line: serum Western blot, Scion image densitometry; mean of 62 patients with early prostate cancer. (A western blot detects proteins with antibodies after separation by electrophoresis.)
For test [6], the target named is haptoglobin β chain derived from benign disease (serum of patients with benign prostatic disease) (human) (UniProt P00738). As to the kind of experiment: serum Western blot, Scion image densitometry; mean of 43 patients with benign prostatic disease.
Test [7] concerns the target haptoglobin β chain derived from cancer (serum or cells of cancer patients) (human) (UniProt P00738). As to the kind of experiment: sandwich ELISA: RM2 captured on anti-mouse IgM plate, diluted serum, detection with rabbit anti-haptoglobin polyclonal; mean of 12 sera of prostate cancer.
Test [8] concerns the target haptoglobin β chain derived from benign disease (serum of patients with benign prostatic disease) (human) (UniProt P00738). The experiment in a line: sandwich ELISA: RM2 captured on anti-mouse IgM plate, diluted serum, detection with rabbit anti-haptoglobin polyclonal; mean of 12 sera of benign prostatic disease. A general note: ELISA stands for enzyme-linked immunosorbent assay.

With monoclonal antibody RM2, the RM2 reaction (the value normalized to RM2 reaction to 75 kDa protein) (ratio of band density to the 75 kDa band) was 0.31 in test [1] and 0.96 in test [3]. Further, the RM2 reaction level to GPX (normalized to 75 kDa band) (ratio of band density to the 75 kDa band) in test [2] turned out to be 0.6; in test [4] it was 0.92; in test [5], 0.96; in test [6], 0.35. Moreover, the absorbance at 450 nm (absorbance at 450 nm) in test [7] was determined as 1.1; in test [8] it was 0.58.
